The values that follow come from patent publication US20220016205A1, “METHODS OF OVERCOMING RESISTANCE TO IMMUNE CHECKPOINT INHIBITORS” (Board of Regents, The University of Texas System, priority 2018, published 2022).

Test [1] has as its system CD4^+ T cells. Put plainly: Western blotting of p38a and SMAD1/5/9 phosphorylation in CD4+ T cells treated with BMP7 or BMP7 plus follistatin. To be noted: BMP7 plus follistatin versus BMP7 alone, 1 hour (FIG. 4A). Type of test: cell-based, mouse. Here is the method: Protein extraction and Western blot analysis. Total protein was extracted by using NP40 lysis buffer (0.5% NP40, 250 mmol/1 NaCl, 50 mmol/1 HEPES, 5 mmol/1 ethylenediaminetetraacetic acid, and 0.5 mmol/1 egtazic acid) supplemented with protease inhibitors cocktails (Sigma-Aldrich). Lysates were centrifuged at 10,000×g for 10 minutes, and the supernatant was collected for experiments. Protein lysates (40 μg) were resolved on denaturing gels with 4-20% sodium dodecyl sulfate-polyacrylamide and transferred to nitrocellulose membranes (Bio-Rad Laboratories, Hercules, Calif.). Membranes were probed with primary antibodies directed against BMP7 (Abcam, Catalog #ab56023), Phospho-Smad1 (Ser463/465)/Smad5 (Ser463/465)/Smad9 (Ser465/467) (Cell Signaling Technologies, Catalog #13820), p38 MAPK (Cell Signaling Technologies, Catalog #8690), Vinculin (Cell Signaling Technologies, Catalog #13901), β-Actin (Cell Signaling Technologies, Catalog #3700), and a secondary antibody conjugated with horseradish peroxidase (Amersham GE Healthcare). […]
(§1) Co-culture experiments and treatments. Viable cells were counted with a hemocytometer (0.4% Trypan blue solution) and diluted to 40,000 cells per well in 24-wells plates. […] RNA was then isolated from RAW 264.7 or CD4^+ T cells and analyzed for p38α, IL-1α, IL-1β, TNF-α, RANTES, IL-2 and IFN-γ expression with qPCR.

Test [2] concerns CD4^+ T cells. The experiment in a line: qPCR of p38α, IFN-γ, IL-2 in CD4+ T cells co-cultured with 344SQR cells plus follistatin. The conditions noted are these: 344SQR co-culture plus follistatin versus 344SQR without follistatin, 24 hours (FIG. 4G). In kind it is cell-based, mouse.
Text: Quantitative polymerase chain reaction (qPCR). Total RNA was isolated from cells and tumors with Triazol (Life Technologies) according to the manufacturer's protocol. For studies of BMP7, p38α, IL-1α, IL-1β, TNF-α, RANTES, IL-2, and IFN-γ expression, mRNA was retrotranscribed with the iScript™ gDNA Clear cDNA Synthesis Kit (BioRad) and analyzed by qPCR using SYBR Green (Life Technologies) with specific primers according to the manufacturer's protocol. The comparative Ct method was used to calculate the relative abundance of mRNAs compared with ACTB (beta-actin) expression for cancer cells or CD45 expression for immune cells.
as §1
Next, CD4^+ T cells were co-cultured with 344SQP or 344SQR cells, and 344SQR ctrl or 344SQR shBMP7 cells, and the expression of p38α, IFN-γ, and IL-2 analyzed. […] To confirm that these findings depended on BMP7 and not on some other secreted molecule, CD4^+ T cells were treated with BMP7 with or without follistatin and p38α, IFN-γ, and IL-2 expression evaluated. […]

B1: follistatin: BMP7 antagonist protein, natural inhibitor of BMP7 (R&D Systems, Catalog #769-FS-025) (protein, UniProt P19883 30-344, looked up)
Follistatin: GNCWLRQAKNGRCQVLYKTELSKEECCSTGRLSTSWTEEDVNDNTLFKWMIFNGGAPNCIPCKETCENVDCGPGKKCRMNKKNKPRCVCAPDCSNITWKGPVCGLDGKTYRNECALLKARCKEQPELEVQYQGRCKKTCRDVFCPGSSTCVVDQTNNAYCVTCNRICPEPASSEQYLCGNDGVTYSSACHLRKATCLLGRSIGLAYEGKCIKAKSCEDIQCTGGKKCLWDFKVGRGRCSLCDELCPDSKSDEPVCASDNATYASECAMKEAACSSGVLLEVKHSGSCNSISEDTEEEEEDEDQDYSFPISSILEW
Take B1: in the test with CD4^+ T cells [1], the SMAD1/5/9 activation result was “lower” and the p38a expression entry was “higher”. For the same molecule, in the test with CD4^+ T cells [2], the “expression of p38α, IFN-γ, and IL-2” value is given as “higher expression”.
